# Results: US20240343803A1
# B1: PVRIG-A105-H3a (Fc fusion, not shown: a dimerising Fc or GST)
# chain: EVQLVESGGGLVQPGGSLRLSCAASGRTFDRHTMTWFRQAPGKEREFVATASRIPGDTYYVDSVKGRFTISRDNAKNSVYLQMNSLRAEDTAVYYCAATSAYSSEVDSYEKGSWYDNWGQGTMVTVSS
# Target: cynomolgus monkey PVRIG on FlpinCHO-cyno PVRIG cells (cynomolgus monkey)
# Experiment: FACS, FlpinCHO-cyno PVRIG cells
# Sequence of cynomolgus monkey PVRIG on FlpinCHO-cyno PVRIG cells (cynomolgus monkey) (chain, as listed by the source): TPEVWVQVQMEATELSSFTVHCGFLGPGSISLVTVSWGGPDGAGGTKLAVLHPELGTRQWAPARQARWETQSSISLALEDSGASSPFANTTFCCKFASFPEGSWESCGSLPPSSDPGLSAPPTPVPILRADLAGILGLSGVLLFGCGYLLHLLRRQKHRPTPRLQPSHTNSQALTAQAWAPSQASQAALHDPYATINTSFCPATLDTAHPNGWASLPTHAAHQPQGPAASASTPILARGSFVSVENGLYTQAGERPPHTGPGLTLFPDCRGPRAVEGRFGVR
binder,measurement,value
B1,AUC % to COM701-hIgG1,3.27%
same,AUC % to SRF813-hIgG1,4.05%
same,AUC % to parental Ab,3.74%
